Values belong to the binder of their own block, whether it stands above or below them.
Key:
[1] = target: TAP-Nup170 (S. cerevisiae, UniProt P38181 1-1502); assay: pull-down
[2] = target: T1, TAP-tagged Ndc1 (S. cerevisiae, UniProt P32500 1-655); assay: pull-down
T1 sequence (looked up): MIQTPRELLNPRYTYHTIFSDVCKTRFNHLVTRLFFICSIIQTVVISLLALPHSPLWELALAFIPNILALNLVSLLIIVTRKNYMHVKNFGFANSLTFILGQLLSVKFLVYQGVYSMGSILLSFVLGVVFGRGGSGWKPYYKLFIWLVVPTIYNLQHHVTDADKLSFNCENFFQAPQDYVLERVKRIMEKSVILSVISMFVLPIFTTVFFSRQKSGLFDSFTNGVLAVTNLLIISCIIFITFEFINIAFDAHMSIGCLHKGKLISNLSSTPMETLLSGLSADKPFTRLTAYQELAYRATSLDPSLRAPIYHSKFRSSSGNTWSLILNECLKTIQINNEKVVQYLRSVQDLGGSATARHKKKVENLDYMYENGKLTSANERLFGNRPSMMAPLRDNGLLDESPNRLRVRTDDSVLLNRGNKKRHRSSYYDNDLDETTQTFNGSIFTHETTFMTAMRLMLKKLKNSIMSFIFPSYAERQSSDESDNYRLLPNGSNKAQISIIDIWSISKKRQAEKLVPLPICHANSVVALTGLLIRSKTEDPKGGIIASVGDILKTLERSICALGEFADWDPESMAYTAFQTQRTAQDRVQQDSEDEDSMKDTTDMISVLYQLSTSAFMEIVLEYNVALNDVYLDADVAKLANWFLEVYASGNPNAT

TAP-Nup170, sequence (P38181 whole entry): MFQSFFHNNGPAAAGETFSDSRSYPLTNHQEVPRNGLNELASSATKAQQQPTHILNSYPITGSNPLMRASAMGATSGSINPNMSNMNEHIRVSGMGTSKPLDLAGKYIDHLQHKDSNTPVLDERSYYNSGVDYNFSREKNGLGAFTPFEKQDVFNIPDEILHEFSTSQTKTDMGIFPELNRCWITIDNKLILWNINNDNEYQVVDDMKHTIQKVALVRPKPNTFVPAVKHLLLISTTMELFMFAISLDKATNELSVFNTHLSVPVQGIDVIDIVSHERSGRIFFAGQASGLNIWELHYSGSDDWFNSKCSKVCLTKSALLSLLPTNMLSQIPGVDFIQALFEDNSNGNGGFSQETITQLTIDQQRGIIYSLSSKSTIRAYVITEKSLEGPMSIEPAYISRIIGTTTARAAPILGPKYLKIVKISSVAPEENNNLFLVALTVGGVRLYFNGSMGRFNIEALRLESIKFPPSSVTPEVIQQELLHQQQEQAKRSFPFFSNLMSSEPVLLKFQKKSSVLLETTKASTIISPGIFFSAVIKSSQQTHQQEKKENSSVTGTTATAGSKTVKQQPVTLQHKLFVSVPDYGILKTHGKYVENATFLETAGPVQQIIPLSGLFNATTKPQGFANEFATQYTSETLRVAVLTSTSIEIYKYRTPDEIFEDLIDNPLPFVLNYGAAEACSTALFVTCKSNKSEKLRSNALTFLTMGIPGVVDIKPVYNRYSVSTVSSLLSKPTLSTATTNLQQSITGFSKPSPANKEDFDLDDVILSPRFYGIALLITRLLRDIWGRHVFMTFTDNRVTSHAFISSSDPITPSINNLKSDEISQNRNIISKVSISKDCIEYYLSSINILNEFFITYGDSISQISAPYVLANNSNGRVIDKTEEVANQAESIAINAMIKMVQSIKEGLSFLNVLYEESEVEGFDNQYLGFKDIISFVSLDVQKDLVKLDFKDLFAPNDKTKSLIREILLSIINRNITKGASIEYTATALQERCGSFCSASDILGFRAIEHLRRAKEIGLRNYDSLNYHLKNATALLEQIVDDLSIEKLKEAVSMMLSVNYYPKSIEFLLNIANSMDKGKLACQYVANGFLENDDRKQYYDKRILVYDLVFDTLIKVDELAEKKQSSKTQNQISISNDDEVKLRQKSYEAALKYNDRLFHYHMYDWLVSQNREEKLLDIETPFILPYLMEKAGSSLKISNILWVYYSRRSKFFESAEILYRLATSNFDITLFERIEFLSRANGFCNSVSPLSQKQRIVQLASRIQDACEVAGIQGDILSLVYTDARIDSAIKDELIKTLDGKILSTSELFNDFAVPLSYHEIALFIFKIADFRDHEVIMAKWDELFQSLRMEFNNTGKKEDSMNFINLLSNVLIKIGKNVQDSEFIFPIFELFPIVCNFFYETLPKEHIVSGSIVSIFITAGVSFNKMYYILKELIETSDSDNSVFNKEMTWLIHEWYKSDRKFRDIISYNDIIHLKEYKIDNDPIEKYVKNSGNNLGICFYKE

B1: 6xHis-MBP-Nup53 (natural protein, S. cerevisiae, UniProt Q03790 1-475, looked up)
chain: MADLQKQENSSRFTNVSVIAPESQGQHEQQKQQEQLEQQKQPTGLLKGLNGFPSAPQPLFMEDPPSTVSGELNDNPAWFNNPRKRAIPNSIIKRSNGQSLSPVRSDSADVPAFSNSNGFNNVTFGSKKDPRILKNVSPNDNNSANNNAHSSDLGTVVFDSNEAPPKTSLADWQKEDGIFSSKTDNIEDPNLSSNITFDGKPTATPSPFRPLEKTSRILNFFDKNTKTTPNTASSEASAGSKEGASTNWDDHAIIIFGYPETIANSIILHFANFGEILEDFRVIKDFKKLNSKNMSKSPSLTAQKYPIYTGDGWVKLTYKSELSKSRALQENGIIMNGTLIGCVSYSPAALKQLASLKKSEEIINNKTSSQTSLSSKDLSNYRKTEGIFEKAKAKAVTSKVRNAEFKVSKNSTSFKNPRRLEIKDGRSLFLRNRGKIHSGVLSSIESDLKKREQASKSKKSWLNRLNNWLFGWNDL
binding result [1]: binds

B2: GST-Nup59 (natural protein, S. cerevisiae, UniProt Q05166 1-528, looked up)
chain: MFGIRSGNNNGGFTNLTSQAPQTTQMFQSQSQLQPQPQPQPQQQQQHLQFNGSSDASSLRFGNSLSNTVNANNYSSNIGNNSINNNNIKNGTNNISQHGQGNNPSWVNNPKKRFTPHTVIRRKTTKQNSSSDINQNDDSSSMNATMRNFSKQNQDSKHNERNKSAANNDINSLLSNFNDIPPSVTLQDWQREDEFGSIPSLTTQFVTDKYTAKKTNRSAYDSKNTPNVFDKDSYVRIANIEQNHLDNNYNTAETNNKVHETSSKSSSLSAIIVFGYPESISNELIEHFSHFGHIMEDFQVLRLGRGINPNTFRIFHNHDTGCDENDSTVNKSITLKGRNNESNNKKYPIFTGESWVKLTYNSPSSALRALQENGTIFRGSLIGCIPYSKNAVEQLAGCKIDNVDDIGEFNVSMYQNSSTSSTSNTPSPPNVIITDGTLLREDDNTPAGHAGNPTNISSPIVANSPNKRLDVIDGKLPFMQNAGPNSNIPNLLRNLESKMRQQEAKYRNNEPAGFTHKLSNWLFGWNDL
binding result [2]: binds

Results, then the binder that gave them:

binding result [1]: binds
B3: 6xHis-MBP-Nup59 (natural protein, S. cerevisiae, UniProt Q05166 1-528, looked up)
chain: B2 chain

binding result [2]: binds
B4: GST-Nup53(376-475) (domain or fragment, S. cerevisiae, UniProt Q03790 376-475, looked up)
chain: KDLSNYRKTEGIFEKAKAKAVTSKVRNAEFKVSKNSTSFKNPRRLEIKDGRSLFLRNRGKIHSGVLSSIESDLKKREQASKSKKSWLNRLNNWLFGWNDL
